T1: human CD3 (SPR antigen of Example 2) (human)
T1 chain: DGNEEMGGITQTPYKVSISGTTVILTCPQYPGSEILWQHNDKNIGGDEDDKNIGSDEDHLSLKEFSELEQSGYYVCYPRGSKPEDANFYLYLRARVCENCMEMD


What was measured:
[1] = target: T1, human CD3 (SPR antigen of Example 2); experiment: SPR; KD rounded to integer per the table's title
[2] = target: T2, recombinant human CD38 (SPR antigen of Example 2) (human, UniProt P28907 43-300); experiment: SPR
[3] = target: T3, human CD38 expressed on the surface of recombinant murine preB::300.19 cells (human, UniProt P28907 1-300); experiment: flow cytometry on hCD38-expressing murine preB::300.19 cells
T3 construct: whole, on cells; also called hCD38-expressing cells; cells expressing human CD38

[4] = target: T1, human CD3 (SPR antigen of Example 2); experiment: SPR; KD rounded to integer; the cell gives two values for mid/low, the first taken as the CD3mid construct
[5] = target: T2, recombinant human CD38 (SPR antigen of …); experiment: as above
[6] = target: T2, recombinant human CD38 (SPR antigen of …); experiment: SPR against recombinant protein; the cell gives two values for mid/low, the first taken as the CD3mid construct
[7] = target: T2, recombinant human CD38 (SPR antigen of …); experiment: SPR against recombinant protein; the cell gives two values for mid/low, the second taken as the CD3low construct
[8] = target: T1, human CD3 (SPR antigen of Example 2); experiment: SPR; KD rounded to integer; the cell gives two values for mid/low, the second taken as the CD3low construct
[9] = target: human CD28 (SPR antigen of Example 2) (human, UniProt P10747 19-152); experiment: as above
[10] = target: T2, recombinant human CD38 (SPR antigen of …); experiment: as above
hCD38-his (SEQ ID NO: 2) = target: T4, hCD38-his (SEQ ID NO: 2) (human, UniProt P28907 45-300); experiment: SPR (summary table; Table K value rounded)
T4 construct: also called human CD38-histag (ID2); soluble extracellular domain of humanCD38

Row | Binder | Kd [7] [nM] | Kd [8] [nM] | Kd [9] [nM] | Kd [10] [nM] | also measured
1 | CD38HHY1370xCD28supxCD3mid trispecific binding protein (other) light 1: DIVMTQTPLSLSVTPGQPASISCKSSQSLVHNNANTYLSWYLQKPGQSPQSLIYKVSNRFSGVPDRFSGSGSGTDFTLKISRVEAEDVGVYYCGQGTQYPFTFGSGTKVEIKGQPKAAPDIQMTQSPSSLSASVGDRVTITCQASQNIYVWLNWYQQKPGKAPKLLIYKASNLHTGVPSRFSGSGSGTDFTLTISSLQPEDIATYYCQQGQTYPYTFGQGTKLEIKTKGPSRTVAAPSVFIFPPSDEQLKSGTASVVCLLNNFYPREAKVQWKVDNALQSGNSQESVTEQDSKDSTYSLSSTLTLSKADYEKHKVYACEVTHQGLSSPVTKSFNRGEC heavy 1: QVQLVQSGAEVVKPGASVKVSCKASGYTFTSYYIHWVRQAPGQGLEWIGSIYPGNVNTNYAQKFQGRATLTVDTSISTAYMELSRLRSDDTAVYYCTRSHYGLDWNFDVWGKGTTVTVSSSQVQLVESGGGVVQPGRSLRLSCAASGFTFTKAWMHWVRQAPGKQLEWVAQIKDKSNSYATYYADSVKGRFTISRDDSKNTLYLQMNSLRAEDTAVYYCRGVYYALSPFDYWGQGTLVTVSSRTASTKGPSVFPLAPCSRSTSESTAALGCLVKDYFPEPVTVSWNSGALTSGVHTFPAVLQSSGLYSLSSVVTVPSSSLGTKTYTCNVDHKPSNTKVDKRVESKYGPPCPPCPAPEAAGGPSVFLFPPKPKDTLMISRTPEVTCVVVDVSQEDPEVQFNWYVDGVEVHNAKTKPREEQFNSTYRVVSVLTVLHQDWLNGKEYKCKVSNKGLPSSIEKTISKAKGQPREPQVCTLPPSQEEMTKNQVSLSCAVKGFYPSDIAVEWESNGQPENNYKTTPPVLDSDGSFFLVSKLTVDKSRWQEGNVFSCSVMHEALHNHYTQKSLSLSLG heavy 2: QVQLVESGGGVVQPGRSLRLSCAASGFTFSSYGMHWVRQAPGKGLEWVAVIWYDGSNKYYADSVKGRFTISGDNSKNTLYLQMNSLRAEDTAVYYCARMFRGAFDYWGQGTLVTVSSASTKGPSVFPLAPCSRSTSESTAALGCLVKDYFPEPVTVSWNSGALTSGVHTFPAVLQSSGLYSLSSVVTVPSSSLGTKTYTCNVDHKPSNTKVDKRVESKYGPPCPPCPAPEAAGGPSVFLFPPKPKDTLMISRTPEVTCVVVDVSQEDPEVQFNWYVDGVEVHNAKTKPREEQFNSTYRVVSVLTVLHQDWLNGKEYKCKVSNKGLPSSIEKTISKAKGQPREPQVYTLPPCQEEMTKNQVSLWCLVKGFYPSDIAVEWESNGQPENNYKTTPPVLDSDGSFFLYSKLTVDKSRWQEGNVFSCSVMHEALHNHYTQKSLSLSLG light 2: AIQMTQSPSSLSASVGDRVTITCRASQGIRNDLGWYQQKPGKAPKLLIYAASSLQSGVPSRFSGSGSGTDFTLTISGLQPEDSATYYCLQDYIYYPTFGQGTKVEIKRTVAAPSVFIFPPSDEQLKSGTASVVCLLNNFYPREAKVQWKVDNALQSGNSQESVTEQDSKDSTYSLSSTLTLSKADYEKHKVYACEVTHQGLSSPVTKSFNRGEC |  |  |  |  | Kd [1]: 48 nM; Kd [2]: 1 nM
2 | CD38VH1xCD28supxCD3mid trispecific binding protein (other, also called antiCD38_C2-CD38-1_VH1-VL1xCD28supxCD3mid) light 1: DIVMTQTPLSLSVTPGQPASISCKSSQSLVHNNANTYLSWYLQKPGQSPQSLIYKVSNRFSGVPDRFSGSGSGTDFTLKISRVEAEDVGVYYCGQGTQYPFTFGSGTKVEIKGQPKAAPDIQMTQSPSSLSASVGDRVTITCQASQNIYVWLNWYQQKPGKAPKLLIYKASNLHTGVPSRFSGSGSGTDFTLTISSLQPEDIATYYCQQGQTYPYTFGQGTKLEIKTKGPSRTVAAPSVFIFPPSDEQLKSGTASVVCLLNNFYPREAKVQWKVDNALQSGNSQESVTEQDSKDSTYSLSSTLTLSKADYEKHKVYACEVTHQGLSSPVTKSFNRGEC heavy 1: QVQLVQSGAEVVKPGASVKVSCKASGYTFTSYYIHWVRQAPGQGLEWIGSIYPGNVNTNYAQKFQGRATLTVDTSISTAYMELSRLRSDDTAVYYCTRSHYGLDWNFDVWGKGTTVTVSSSQVQLVESGGGVVQPGRSLRLSCAASGFTFTKAWMHWVRQAPGKQLEWVAQIKDKSNSYATYYADSVKGRFTISRDDSKNTLYLQMNSLRAEDTAVYYCRGVYYALSPFDYWGQGTLVTVSSRTASTKGPSVFPLAPCSRSTSESTAALGCLVKDYFPEPVTVSWNSGALTSGVHTFPAVLQSSGLYSLSSVVTVPSSSLGTKTYTCNVDHKPSNTKVDKRVESKYGPPCPPCPAPEAAGGPSVFLFPPKPKDTLMISRTPEVTCVVVDVSQEDPEVQFNWYVDGVEVHNAKTKPREEQFNSTYRVVSVLTVLHQDWLNGKEYKCKVSNKGLPSSIEKTISKAKGQPREPQVCTLPPSQEEMTKNQVSLSCAVKGFYPSDIAVEWESNGQPENNYKTTPPVLDSDGSFFLVSKLTVDKSRWQEGNVFSCSVMHEALHNHYTQKSLSLSLG heavy 2: QVQLVQSGAEVVKPGASVKVSCKASGYTFTSYAMHWVKEAPGQRLEWIGYIYPGQGGTNYNQKFQGRATLTADTSASTAYMELSSLRSEDTAVYFCARTGGLRRAYFTYWGQGTLVTVSSASTKGPSVFPLAPCSRSTSESTAALGCLVKDYFPEPVTVSWNSGALTSGVHTFPAVLQSSGLYSLSSVVTVPSSSLGTKTYTCNVDHKPSNTKVDKRVESKYGPPCPPCPAPEAAGGPSVFLFPPKPKDTLMISRTPEVTCVVVDVSQEDPEVQFNWYVDGVEVHNAKTKPREEQFNSTYRVVSVLTVLHQDWLNGKEYKCKVSNKGLPSSIEKTISKAKGQPREPQVYTLPPCQEEMTKNQVSLWCLVKGFYPSDIAVEWESNGQPENNYKTTPPVLDSDGSFFLYSKLTVDKSRWQEGNVFSCSVMHEALHNHYTQKSLSLSLG light 2: DIVLTQSPATLSLSPGERATISCRASQSVSSYGQGFMHWYQQKPGQPPRLLIYGASSRATGIPARFSGSGSGTDFTLTISPLEPEDFAVYYCQQNKEDPWTFGGGTKLEIKRTVAAPSVFIFPPSDEQLKSGTASVVCLLNNFYPREAKVQWKVDNALQSGNSQESVTEQDSKDSTYSLSSTLTLSKADYEKHKVYACEVTHQGLSSPVTKSFNRGEC |  |  |  |  | EC50 [3]: 11 nM; Kd [4]: 21 nM; Kd [5]: 4 nM; Kd [6]: 4 nM
3 | CD38VH1xCD28cvnxCD3low trispecific binding protein (other, also called CD38VH1xCD28cvnxCD3mid/low) VH 1: QVQLQESGPGLVKPSQTLSLTCTVSGFSLSDYGVHWVRQPPGKGLEWLGVIWAGGGTNYNPSLKSRKTISKDTSKNQVSLKLSSVTAADTAVYYCARDKGYSYYYSMDYWGQGTTVTVS VL 1: DIVLTQSPASLAVSPGQRATITCRASESVEYYVTSLMQWYQQKPGQPPKLLIFAASNVESGVPARFSGSGSGTDFTLTINPVEANDVANYYCQQSRKVPYTFGQGTKLEIK VH 2: QVQLVESGGGVVQPGRSLRLSCAASGFTFTKAWMHWVRQAPGKGLEWVAQIKDKSNSYATYYADSVKGRFTISRDNSKNTLYLQMNSLRAEDTAVYYCRGVYYALSPFDYWGQGTLVTVSS VL 2: DIVMTQTPLSLSVTPGQPASISCKSSQSLVHNNGNTYLSWYLQKPGQSPQLLIYKVSNRFSGVPDRFSGSGSGTDFTLKISRVEAEDVGVYYCGQGTQYPFTFGGGTKVEIK VH 3: QVQLVQSGAEVVKPGASVKVSCKASGYTFTSYAMHWVKEAPGQRLEWIGYIYPGQGGTNYNQKFQGRATLTADTSASTAYMELSSLRSEDTAVYFCARTGGLRRAYFTYWGQGTLVTVSS VL 3: DIVLTQSPATLSLSPGERATISCRASQSVSSYGQGFMHWYQQKPGQPPRLLIYGASSRATGIPARFSGSGSGTDFTLTISPLEPEDFAVYYCQQNKEDPWTFGGGTKLEIK | 6 | 59 | 34 | 6 | 
4 | CD38VH1xCD28supxCD3low trispecific binding protein (other, also called CD38VH1xCD28supxCD3mid/low) VH 1: QVQLVQSGAEVVKPGASVKVSCKASGYTFTSYYIHWVRQAPGQGLEWIGSIYPGNVNTNYAQKFQGRATLTVDTSISTAYMELSRLRSDDTAVYYCTRSHYGLDWNFDVWGKGTTVTVSS VL 1: DIQMTQSPSSLSASVGDRVTITCQASQNIYVWLNWYQQKPGKAPKLLIYKASNLHTGVPSRFSGSGSGTDFTLTISSLQPEDIATYYCQQGQTYPYTFGQGTKLEIK VH 2: QVQLVESGGGVVQPGRSLRLSCAASGFTFTKAWMHWVRQAPGKGLEWVAQIKDKSNSYATYYADSVKGRFTISRDNSKNTLYLQMNSLRAEDTAVYYCRGVYYALSPFDYWGQGTLVTVSS VL 2: DIVMTQTPLSLSVTPGQPASISCKSSQSLVHNNGNTYLSWYLQKPGQSPQLLIYKVSNRFSGVPDRFSGSGSGTDFTLKISRVEAEDVGVYYCGQGTQYPFTFGGGTKVEIK VH 3: QVQLVQSGAEVVKPGASVKVSCKASGYTFTSYAMHWVKEAPGQRLEWIGYIYPGQGGTNYNQKFQGRATLTADTSASTAYMELSSLRSEDTAVYFCARTGGLRRAYFTYWGQGTLVTVSS VL 3: DIVLTQSPATLSLSPGERATISCRASQSVSSYGQGFMHWYQQKPGQPPRLLIYGASSRATGIPARFSGSGSGTDFTLTISPLEPEDFAVYYCQQNKEDPWTFGGGTKLEIK | 6 | 76 | 4 | 6 | 
5 | antiCD38_C2-CD38-1_VH3-VL3 (antibody, human IgG1, kappa, V domains shown) VH: QVQLVQSGAEVVKPGASVKVSCKASGYTFTSFNMHWVKEAPGQRLEWIGYIYPGNGGTNYNQKFQGRATLTADTSASTAYMELSSLRSEDTAVYFCARTGGLRRAYFTYWGQGTLVTVSS VL: DIVLTQSPATLSLSPGERATISCRASESVDSYGNGFMHWYQQKPGQPPRLLIYLASSRATGIPARFSGSGSGTDFTLTISPLEPEDFAVYYCQQNKEDPWTFGGGTKLEIKR |  |  |  |  | Kd (hCD38-his (SEQ ID NO: 2)): 0.48 nM

Reference: patent US20200140552A1 (Sanofi, published 2020)
